Results: US20150337019

Assays:
[1] = tested on: native hexamer form of MRJP1
[2] = tested on: monomeric form of royalactin
[3] = tested on: MGO-modified MRJP (MRJP mixture treated with MGO)

Cathepsin B from bovine spleen
Cathepsin B digestion (data not shown) [1]: the native hexamer form of MRJP1 and the monomeric form of royalactin were readily degraded by this enzyme
Cathepsin B digestion (data not shown) [2]: the native hexamer form of MRJP1 and the monomeric form of royalactin were readily degraded by this enzyme
Cathepsin B digestion, native PAGE [3]: Cathepsin B is unable to hydrolyze the protein at pH 7.0 but was able to hydrolyze the lower molecular weight species produced at pH 4.0
